{"source": "patent US12564623B2", "about": "“Methods and compositions for treating cancer” (The University of Chicago, priority 2017, dated 2026)", "molecules": {"B1": {"name": "murine neutrophil elastase (protein, listed as Mus musculus)", "chain": "MALGRLSSRTLAAMLLALFLGGPALASEIVGGRPARPHAWPFMASLQRRGGHFCGATLIARNFVMSAAHCVNGLNFRSVQVVLGAHDLRRQERTRQTFSVQRIFENGFDPSQLLNDIVIIQLNGSATINANVQVAQLPAQGQGVGDRTPCLAMGWGRLGTNRPSPSVLQELNVTVVTNMCRRRVNVCTLVPRRQAGICFGDSGGPLVCNNLVQGIDSFIRGGCGSGLYPDAFAPVAEFADWINSIIRSHNDHLLTHPKDREGRTN"}, "B2": {"name": "CASP3: purified human CASP3 (Abcam) (protein)", "chain": "MENTENSVDSKSIKNLEPKIIHGSESMDSGISLDNSYKMDYPEMGLCIIINNKNFHKSTGMTSRSGTDVDAANLRETFRNLKYEVRNKNDLTREEIVELMRDVSKEDHSKRSSFVCVLLSHGEEGIIFGTNGPVDLKKITNFFRGDRCRSLTGKPKLFIIQACRGTELDCGIETDSGVDDDMACHKIPVEADFLYAYSTAPGYYSWRNSKDGSWFIQSLCAMLKQYADKLEFMHILTRVNRKVATEFESFSFDATFHAKKQIPCIVSMLTKELYFYH"}, "B3": {"name": "proteinase 3 (protein, listed as Homo sapiens)", "chain": "MAHRPPSPALASVLLALLLSGAARAAEIVGGHEAQPHSRPYMASLQMRGNPGSHFCGGTLIHPSFVLTAAHCLRDIPQRLVNVVLGAHNVRTQEPTQQHFSVAQVFLNNYDAENKLNDVLLIQLSSPANLSASVATVQLPQQDQPVPHGTQCLAMGWGRVGAHDPPAQVLQELNVTVVTFFCRPHNICTFVPRRKAGICFGDSGGPLICDGIIQGIDSFVIWGCATRLFPDFFTRVALYVDWIRSTLRRVEAKGRP"}, "B4": {"name": "ANXA6: purified human ANXA6 (R&D Systems) (protein, UniProt P08133 2-673, looked up)", "Annexin A6": "AKPAQGAKYRGSIHDFPGFDPNQDAEALYTAMKGFGSDKEAILDIITSRSNRQRQEVCQSYKSLYGKDLIADLKYELTGKFERLIVGLMRPPAYCDAKEIKDAISGIGTDEKCLIEILASRTNEQMHQLVAAYKDAYERDLEADIIGDTSGHFQKMLVVLLQGTREEDDVVSEDLVQQDVQDLYEAGELKWGTDEAQFIYILGNRSKQHLRLVFDEYLKTTGKPIEASIRGELSGDFEKLMLAVVKCIRSTPEYFAERLFKAMKGLGTRDNTLIRIMVSRSELDMLDIREIFRTKYEKSLYSMIKNDTSGEYKKTLLKLSGGDDDAAGQFFPEAAQVAYQMWELSAVARVELKGTVRPANDFNPDADAKALRKAMKGLGTDEDTIIDIITHRSNVQRQQIRQTFKSHFGRDLMTDLKSEISGDLARLILGLMMPPAHYDAKQLKKAMEGAGTDEKALIEILATRTNAEIRAINEAYKEDYHKSLEDALSSDTSGHFRRILISLATGHREEGGENLDQAREDAQVAAEILEIADTPSGDKTSLETRFMTILCTRSYPHLRRVFQEFIKMTNYDVEHTIKKEMSGDVRDAFVAIVQSVKNKPLFFADKLYKSMKGAGTDEKTLTRIMVSRSEIDLLNIRREFIEKYDKSLHQAIEGDTSGDFLKALLALCGGED"}}, "key": {"[1]": {"tested_on": "MDA-MB-231 cells", "experiment": "Cancer cell killing, Calcein AM staining", "type": "cell-based, human", "conditions": "for cancer cell killing in combination with neutrophil conditioned media: Neu-CM 4 μg/mL, DOX 0.3 μM or PTX 3 nM, 4h; for cancer cell killing activity of purified protein: increasing doses, 5h", "experimental": "Approach to identify the factor(s) mediating selective killing. A quantitative cancer cell killing assay was developed to track the bioactive factor(s). MDA-MB-231 cells were treated with various doses of PMN media and cell viability was assessed by Calcein AM live cells fluorescence staining. […] (FIG. 3B) PMN media was passed through a 0.22 μm filter, and protein concentration and killing activity on MDA-MB-231 cancer cells was measured in both pre- and post-filter solutions. […] ELANE and ECP levels in PMN media pre- and post-filtration were quantified by mass spectrometry (spectral counts).\nTo determine if ELANE and/or ECP were responsible, the inventors (1) immuno-depleted ELANE or ECP from PMN media; (2) treated cancer or normal cells with purified native ELANE or ECP from commercial sources. (FIG. 6A) ELANE or ECP were depleted from PMN media by immunoprecipitation; depletion was confirmed by western blotting. PMN media pre-depletion=Orig. and post-depletion=FT. Non-specific IgG was used as a control. (FIG. 6B) MDA-MB-231 cells or human monocyte-derived macrophages (HMDMs) were treated with purified native ELANE or ECP at various doses for 24h, and killing was assessed by Calcein AM staining. (FIG. 6C) MDA-MB-231 cells and HMDMs were treated with levels of ELANE (0.25 μg/mL) or ECP (0.05 μg/mL) that were present in the PMN media, alone or in combination for 24 hrs, and killing was examined by Calcein AM staining.\nHigh doses of ECP or ELANE can kill cancer cells. The inventors sought to determine whether adding purified human ECP (Lee Biosolutions), human ELANE (Abcam), human DEFA1 (Abcam), human ANXA6 (R&D Systems) or human CASP3 (Abcam) individually could kill cancer cells without killing non-cancer cells. Increasing doses of each protein were added to MDA-MB-231 cells for 5h or human monocyte-derived macrophages (HMDMs) for 24 h and cell viability was determined by Calcein-AM.\nELANE and ECP synergize to selectively kill cancer cells. MDA-MB-231 and human monocyte-derived macrophages (HMDMs) were treated with levels of ELANE (0.25 μg/mL) or ECP (0.05 μg/mL) that were present in the PMN media, alone or in combination for 24 hrs. killing was examined by Calcein AM staining.\nCombining chemotherapeutics and neutrophil conditioned media enhances the killing of human triple negative breast cancer cells. MDA-MB-231 cells were treated with neutrophil conditioned media (Neu-CM; 4 μg/mL), doxorubicin (DOX; 0.3 μM), or paclitaxel (PTX; 3 nM) for 4h, individually or in combination, and cell viability was assessed by Calcein-AM.\n(§1) Other serine proteases cleave the C-terminal domain of CD95, and the ability to cleave the C-terminal domain is associated with cancer cell killing. (FIG. 12A) Full length recombinanat CD95 protein was incubated with various serine proteases (human ELANE (80 nM), PR3 (80 nM), CSTG (80 nM), PPE (80 nM), mouse ELANE (80 nM), rat ELANE (500 nM), GZMB (80 nM), or Trypsin (250 nM)), or other types of proteases (CTSC (80 nM); or MMP7 (80 nM), MMP9 (80 nM), CTSD (80 nM) not shown) at 37° C. for 2 hours. Degradation was assessed by SDS-PAGE followed by coomassie blue staining. (FIG. 12B) MDA-MB-231 cancer cells were incubated with various proteases for 24 hrs. Cell viability was assessed by Calcein AM staining.\n(FIG. 13A) MDA-MB-231 cancer cells were treated with various doses of purified native ELANE or purified native porcine pancreatic elastase (PPE) for 6 h, and killing was assessed by Calcein AM staining. (FIG. 13B). Purified native ELANE or purified native PPE was incubated with different concentrations of alpha-1-anti-trypsin (A1AT) for 15 mins. Catalytic activity was measured using a chromogenic substrate assay. Cancer cell killing capability was determined by treating MDA-MB-231 cancer cells with ELANE or PPE in the presence or absence of A1AT for 6h, followed by Calcein AM staining. (FIG. 13C) Catalytic activity was measured using a chromogenic substrate assay. […]"}, "[2]": {"target": "T1, CD95 (Homo sapiens, UniProt P25445)", "T1 sequence (P25445 26-335)": "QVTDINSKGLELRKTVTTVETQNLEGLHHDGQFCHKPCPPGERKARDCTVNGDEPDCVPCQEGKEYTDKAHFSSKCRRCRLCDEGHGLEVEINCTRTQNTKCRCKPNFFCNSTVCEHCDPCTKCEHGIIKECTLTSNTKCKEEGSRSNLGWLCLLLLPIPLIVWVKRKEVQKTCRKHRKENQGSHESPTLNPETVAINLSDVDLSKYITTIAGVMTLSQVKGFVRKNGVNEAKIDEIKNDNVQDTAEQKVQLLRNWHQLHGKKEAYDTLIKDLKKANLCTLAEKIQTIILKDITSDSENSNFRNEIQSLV", "experiment": "Recombinant CD95 degradation, SDS-PAGE and coomassie blue", "type": "biochemical", "parameters": "Recombinant proteins (1 μg) corresponding to full length CD95 (FL-CD95)", "conditions": "purified CD95", "experimental": "ELANE lowers CD95 levels in cancer cells and reduced CD95 levels are associated with apoptosis. (FIG. 8A) Recombinant proteins (1 μg) corresponding to full length CD95 (FL-CD95), N-terminal domain of CD95 (amino acids 1-173; N-CD95), or C-terminal domain of CD95 (amino acids 157-320; C-CD95) were inbuated with ELANE (0.05 μg) or vehicle (Veh) for 2 hrs at 37° C. Degradation was assessed by SDS-PAGE followed by coomassie blue staining. […] (FIG. 8C) Cancer cells were treated with ELANE (50 nM) for 1 hr, fixed in 10% formalin, and stained with N- or C-terminal specific anti-CD95 antibodies (green). Hoechst 33342 solution was used for nuclear staining (blue). Images were taken under 40×.\nELANE selectively cleaves the C-terminal domain of CD95. The CD95 pathway is essential for the survival of a wide range of cancer cells, but largely dispensable for normal cell survival (Adachi et al., Nat. Genet., 1995; Karray et al., J. Immunol., 2004). CD95 function can be modulated by proteolysis (Strand et al., Oncogene, 2004). To test CD95 involvement in ELANE mediated cell killing ELANE (0.05 μg) was incubated with 1 μg recombinant human C-terminal (aa. 157-320) or N-terminal (aa. 1-173) CD95 for 2 hrs at 37° C. Degradation was assessed by SDS-PAGE followed by staining with coomassie blue. C-terminal domain cleavage. N-terminal domain cleavage. Cancer cells were treated with ELANE (50 nM) for 1 hr, fixed in 10% formalin, and stained with N- or C-terminal specific anti-CD95 antibodies. Hoechst 33342 solution was used for nuclear staining. Images were taken under 40×. […] Mel888 cancer cells were treated with ELANE (50 nM) for various times, and CD95 degradation was assessed by western blot analysis with a C-terminal specific anti-CD95 antibody.\nas §1"}, "[3]": {"target": "T2, ELANE (Homo sapiens, UniProt P08246)", "T2 construct": "incubated the neutrophil conditioned media with magnetic beads coupled to an anti-ELANE antibody; endogenous in cells; host or cells: human peripheral blood neutrophils from healthy donors (conditioned media)", "T2 sequence (P08246 30-267)": "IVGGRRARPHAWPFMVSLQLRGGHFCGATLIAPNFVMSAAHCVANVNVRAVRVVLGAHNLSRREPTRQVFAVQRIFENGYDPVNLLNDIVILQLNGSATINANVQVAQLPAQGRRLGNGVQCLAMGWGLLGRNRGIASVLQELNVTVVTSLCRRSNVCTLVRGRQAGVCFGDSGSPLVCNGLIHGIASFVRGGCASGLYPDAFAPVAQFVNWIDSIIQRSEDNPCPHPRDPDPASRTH", "experiment": "Anti-ELANE magnetic bead pull-down from neutrophil conditioned media, western blotting", "type": "binding", "conditions": "anti-ELANE antibody beads", "text": "Identification of ECP, ELANE, ANXA6, DEFA1, and CASP3 as candidate cancer cell killing proteins in the neutrophil conditioned media. Neutrophil conditioned media was obtained from 2 different donors (Donor 1 and Donor 2). […] To determine the identity of the proteins depleted by the 0.2 μm sterile filter, the inventors performed quantitative proteomics analysis on the conditioned media from each donor pre- and post-filter. Proteomics analysis identified 2000 proteins, 4 of which (ECP, ELANE, ANXA6, and DEFA1) were depleted in samples from both donors (G-test, p<0.05). The inventors explored the possibility that these proteins might interact with or complement one another. This hypothesis was tested using two approaches. First, the inventors incubated the neutrophil conditioned media with magnetic beads coupled to an anti-ELANE antibody and analyzed the supernatant (sup), wash, and eluent (elute) by western blotting."}}, "data": [{"molecule": "COc1cccc2c1C(=O)c1c(O)c3c(c(O)c1C2=O)C[C@@](O)(C(=O)CO)C[C@@H]3O[C@H]1C[C@H](N)[C@H](O)[C@H](C)O1", "note": "[doxorubicin, reference compound]", "values": [{"measurement": "cancer cell killing in combination with neutrophil conditioned media", "setting": "[1]", "value": "enhanced cancer cell killing"}]}, {"molecule": "CC(=O)O[C@H]1C(=O)[C@@]2(C)[C@H]([C@H](OC(=O)c3ccccc3)[C@]3(O)C[C@H](OC(=O)[C@H](O)[C@@H](NC(=O)c4ccccc4)c4ccccc4)C(C)=C1C3(C)C)[C@]1(OC(C)=O)CO[C@@H]1C[C@@H]2O", "note": "[paclitaxel, reference compound]", "values": [{"measurement": "cancer cell killing in combination with neutrophil conditioned media", "setting": "[1]", "value": "enhanced cancer cell killing"}]}, {"molecule": "cathepsin G [CTSG]", "values": [{"measurement": "cancer cell killing by proteases", "setting": "[1]", "value": "killed cancer cells"}, {"measurement": "cleavage of purified CD95", "setting": "[2]", "value": "cleaved purified CD95 with an identical degradation pattern to ELANE"}]}, {"molecule": "DEFA1: purified human DEFA1 (Abcam)", "values": [{"measurement": "cancer cell killing activity of purified protein", "setting": "[1]", "value": "low amount of activity"}, {"measurement": "binding to ELANE", "setting": "[3]", "value": "ELANE-binding proteins"}]}, {"molecule": "B1", "values": [{"measurement": "cancer cell killing by proteases", "setting": "[1]", "value": "killed cancer cells"}, {"measurement": "cleavage of purified CD95", "setting": "[2]", "value": "cleaved purified CD95 with an identical degradation pattern to ELANE"}]}, {"molecule": "B2", "values": [{"measurement": "cancer cell killing activity of purified protein", "setting": "[1]", "value": "could not kill cancer cells"}, {"measurement": "binding to ELANE", "setting": "[3]", "value": "ELANE-binding proteins"}]}, {"molecule": "B3", "values": [{"measurement": "cancer cell killing by proteases", "setting": "[1]", "value": "killed cancer cells"}, {"measurement": "cleavage of purified CD95", "setting": "[2]", "value": "cleaved purified CD95 with an identical degradation pattern to ELANE"}]}, {"molecule": "B4", "values": [{"measurement": "cancer cell killing activity of purified protein", "setting": "[1]", "value": "could not kill cancer cells"}]}]}
